Publication PMC4628882

Columns and labels:
[1] = target: mouse melanocortin 5 receptor (mouse) (UniProt P41149)
[2] = target: mouse melanocortin 4 receptor (mouse) (UniProt P56450)
[3] = target: mouse melanocortin 3 receptor (mouse) (UniProt P33033)
[4] = target: mouse melanocortin 1 receptor (mouse) (UniProt Q01727)
UniProt Q01727, sequence (Q01727 whole entry): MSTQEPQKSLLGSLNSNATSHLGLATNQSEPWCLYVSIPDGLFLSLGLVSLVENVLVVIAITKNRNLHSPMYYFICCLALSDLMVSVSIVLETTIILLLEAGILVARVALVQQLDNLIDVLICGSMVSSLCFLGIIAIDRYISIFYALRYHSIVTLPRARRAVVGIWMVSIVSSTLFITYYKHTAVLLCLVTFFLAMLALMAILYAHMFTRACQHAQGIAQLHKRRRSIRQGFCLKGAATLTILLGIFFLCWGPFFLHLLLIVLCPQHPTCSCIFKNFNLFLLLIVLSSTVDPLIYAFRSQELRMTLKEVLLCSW

UniProt P33033, sequence (P33033 whole entry): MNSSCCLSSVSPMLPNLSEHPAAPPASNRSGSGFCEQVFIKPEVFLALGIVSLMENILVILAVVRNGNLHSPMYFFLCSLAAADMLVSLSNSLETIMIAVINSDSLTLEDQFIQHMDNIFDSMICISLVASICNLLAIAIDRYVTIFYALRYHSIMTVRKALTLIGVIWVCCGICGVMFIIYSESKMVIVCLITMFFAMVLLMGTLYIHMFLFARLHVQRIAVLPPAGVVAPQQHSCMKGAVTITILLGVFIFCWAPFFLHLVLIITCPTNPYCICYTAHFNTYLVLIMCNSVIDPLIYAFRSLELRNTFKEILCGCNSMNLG
UniProt P56450, sequence (P56450 whole entry): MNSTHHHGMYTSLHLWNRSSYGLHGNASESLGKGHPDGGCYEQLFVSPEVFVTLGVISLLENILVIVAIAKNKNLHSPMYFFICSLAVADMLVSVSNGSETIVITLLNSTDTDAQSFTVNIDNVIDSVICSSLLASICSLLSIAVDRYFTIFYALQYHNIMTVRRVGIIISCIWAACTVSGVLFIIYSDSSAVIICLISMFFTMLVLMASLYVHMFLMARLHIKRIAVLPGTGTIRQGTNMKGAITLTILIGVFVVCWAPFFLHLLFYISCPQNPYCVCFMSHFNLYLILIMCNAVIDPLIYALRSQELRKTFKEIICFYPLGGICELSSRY
UniProt P41149, sequence (P41149 whole entry): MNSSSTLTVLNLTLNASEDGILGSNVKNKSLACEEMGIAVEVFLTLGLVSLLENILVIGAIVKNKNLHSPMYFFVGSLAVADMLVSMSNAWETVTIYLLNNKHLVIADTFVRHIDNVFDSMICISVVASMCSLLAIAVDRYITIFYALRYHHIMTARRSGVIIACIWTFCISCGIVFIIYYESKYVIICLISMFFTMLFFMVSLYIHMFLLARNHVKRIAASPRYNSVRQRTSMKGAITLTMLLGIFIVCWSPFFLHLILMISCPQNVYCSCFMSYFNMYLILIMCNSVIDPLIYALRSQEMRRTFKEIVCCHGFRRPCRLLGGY

| Substance | agonist EC50, AlphaScreen cAMP assay on stably transfected HEK293 cells [1] | agonist EC50, AlphaScreen cAMP assay on stably transfected HEK293 cells [2] | agonist EC50, AlphaScreen cAMP assay on stably transfected HEK293 cells [3] | agonist EC50, AlphaScreen cAMP assay on stably transfected HEK293 cells [4] |
| --- | --- | --- | --- | --- |
| α-MSH (peptide) | 0.51 nM | 2.9 nM | 0.5 nM | 0.14 nM |
| ClpB(535-548) (from UniProt P63284 535-548) (peptide) |  |  |  | 41000 nM |
